Results: patent US12031160B2, “Method for the production of glufosinate-ammonium” (ZHEJIANG UNIVERSITY OF TECHNOLOGY, priority 2018, dated 2024)
Substitutions are numbered along the chain they refer to. Numbers in names are those of the source.

Tests used:
[1] = substrate: CP(=O)(O)CCC(=O)C(=O)O; assay: purified protein, by the assay type; details: other: PPO 2-10 mM, NADPH 1-5 mM, pH 7.4, 35° C., double-reciprocal plot
[2] = substrate: NC(=O)C1=CN([C@@H]2O[C@H](COP(=O)(O)OP(=O)(O)OC[C@H]3O[C@@H](n4cnc5c(N)ncnc54)[C@H](OP(=O)(O)O)[C@@H]3O)[C@@H](O)[C@H]2O)C=CC1; assay: purified protein, by the assay type
[3] = substrate: CP(=O)(O)CCC(=O)C(=O)O; assay: Kinetic parameters of purified mutant PPTGDH-F357G; format: biochemical, Pseudomonas moorei; details: other: PPO 2-10 mM, NADPH 1-5 mM, pH 7.4, 35° C., double-reciprocal plot
Protocol: (§1) 1. […] The mutant proteins were purified by Ni-NTA column(1.6×10 cm, Bio-Rad, the USA), and the specific operations were carried out as follows: (1)equilibrate a Ni-NTA column with 5 column volumes of a binding buffer(pH 8.0, 50 mM sodium phosphate buffer containing 0.3 M NaCl) until the baseline is steady; (2)load the sample with a flow rate of 1 mL/min with the amount of the loading sample of 25-40 mg/mL, thereby attaching the target protein to the Ni-NTA column; (3)wash the column with 6 column volumes of buffer A (pH 8.0, 50 mM sodium phosphate buffer containing 0.3 M NaCl and 30 mM imidazole) at a flow rate of 1 mL/min until the baseline is steady; (4)wash the column with buffer B (pH 8.0, 50 mM sodium phosphate buffer containing 0.3 M NaCl and 500 mM imidazole) at a flow rate of 1 mL/min, collect the target protein and dialyze overnight in a pH 7.5, 20 mM phosphate buffer, thereby obtaining the pure glufosinate-ammonium dehydrogenase; and (5)wash the Ni-NTA column with 5 column volumes of a binding buffer(pH 8.0, 50 mM sodium phosphate buffer containing 0.3 M NaCl) until the baseline is steady, and store the Ni-NTA column in 5 column volumes of ultrapure water containing 20% ethanol.
(§2) According to sequential mechanism in glufosinate-ammonium dehydrogenase's catalytic reaction, vmax, Km^A, Km^B can be calculated by a double-reciprocal plot, the results were shown in Table 4.

[4] = substrate: NC(=O)C1=CN([C@@H]2O[C@H](COP(=O)(O)OP(=O)(O)OC[C@H]3O[C@@H](n4cnc5c(N)ncnc54)[C@H](OP(=O)(O)O)[C@@H]3O)[C@@H](O)[C@H]2O)C=CC1; assay: Kinetic parameters of purified mutant PPTGDH-F357G; format: biochemical, Pseudomonas moorei; details: other: PPO 2-10 mM, NADPH 1-5 mM, pH 7.4, 35° C., double-reciprocal plot
Protocol: as §1, §2

[5] = substrate: CP(=O)(O)CCC(=O)C(=O)O; assay: Kinetic parameters of purified mutant PPTGDH-F188P; format: biochemical, Pseudomonas moorei; details: other: PPO 2-10 mM, NADPH 1-5 mM, pH 7.4, 35° C., double-reciprocal plot
Protocol: as §1, §2

[6] = substrate: NC(=O)C1=CN([C@@H]2O[C@H](COP(=O)(O)OP(=O)(O)OC[C@H]3O[C@@H](n4cnc5c(N)ncnc54)[C@H](OP(=O)(O)O)[C@@H]3O)[C@@H](O)[C@H]2O)C=CC1; assay: Kinetic parameters of purified mutant PPTGDH-F188P; format: biochemical, Pseudomonas moorei; details: other: PPO 2-10 mM, NADPH 1-5 mM, pH 7.4, 35° C., double-reciprocal plot
Protocol: as §1, §2

[7] = substrate: CP(=O)(O)CCC(=O)C(=O)O; assay: Kinetic parameters of purified mutant PPTGDH-L107R-F188P; format: biochemical, Pseudomonas moorei; details: other: PPO 2-10 mM, NADPH 1-5 mM, pH 7.4, 35° C., double-reciprocal plot
Protocol: as §1, §2

[8] = substrate: NC(=O)C1=CN([C@@H]2O[C@H](COP(=O)(O)OP(=O)(O)OC[C@H]3O[C@@H](n4cnc5c(N)ncnc54)[C@H](OP(=O)(O)O)[C@@H]3O)[C@@H](O)[C@H]2O)C=CC1; assay: as above; format: biochemical, Pseudomonas moorei; details: other: PPO 2-10 mM, NADPH 1-5 mM, pH 7.4, 35° C., double-reciprocal plot
Protocol: as §1, §2

[9] = substrate: CP(=O)(O)CCC(=O)C(=O)O; assay: Kinetic parameters of purified mutant PPTGDH-L107R-F188P-G239K; format: biochemical, Pseudomonas moorei; details: other: PPO 2-10 mM, NADPH 1-5 mM, pH 7.4, 35° C., double-reciprocal plot
Protocol: as §1, §2

[10] = substrate: NC(=O)C1=CN([C@@H]2O[C@H](COP(=O)(O)OP(=O)(O)OC[C@H]3O[C@@H](n4cnc5c(N)ncnc54)[C@H](OP(=O)(O)O)[C@@H]3O)[C@@H](O)[C@H]2O)C=CC1; assay: as above; format: biochemical, Pseudomonas moorei; details: other: PPO 2-10 mM, NADPH 1-5 mM, pH 7.4, 35° C., double-reciprocal plot
Protocol: as §1, §2

[11] = substrate: CP(=O)(O)CCC(=O)C(=O)O; assay: Kinetic parameters of purified mutant PPTGDH-L107R; format: biochemical, Pseudomonas moorei; details: other: PPO 2-10 mM, NADPH 1-5 mM, pH 7.4, 35° C., double-reciprocal plot
Protocol: as §1, §2

[12] = substrate: NC(=O)C1=CN([C@@H]2O[C@H](COP(=O)(O)OP(=O)(O)OC[C@H]3O[C@@H](n4cnc5c(N)ncnc54)[C@H](OP(=O)(O)O)[C@@H]3O)[C@@H](O)[C@H]2O)C=CC1; assay: Kinetic parameters of purified mutant PPTGDH-L107R; format: biochemical, Pseudomonas moorei; details: other: PPO 2-10 mM, NADPH 1-5 mM, pH 7.4, 35° C., double-reciprocal plot
Protocol: as §1, §2

[13] = substrate: CP(=O)(O)CCC(=O)C(=O)O; assay: Kinetic parameters of purified mutant PPTGDH-G239K; format: biochemical, Pseudomonas moorei; details: other: PPO 2-10 mM, NADPH 1-5 mM, pH 7.4, 35° C., double-reciprocal plot
Protocol: as §1, §2

[14] = substrate: NC(=O)C1=CN([C@@H]2O[C@H](COP(=O)(O)OP(=O)(O)OC[C@H]3O[C@@H](n4cnc5c(N)ncnc54)[C@H](OP(=O)(O)O)[C@@H]3O)[C@@H](O)[C@H]2O)C=CC1; assay: Kinetic parameters of purified mutant PPTGDH-G239K; format: biochemical, Pseudomonas moorei; details: other: PPO 2-10 mM, NADPH 1-5 mM, pH 7.4, 35° C., double-reciprocal plot
Protocol: as §1, §2

[15] = other: PPO 2-10 mM, NADPH 1-5 mM, pH 7.4, 35° C., double-reciprocal plot

B1: Pseudomonas moorei glufosinate-ammonium dehydrogenase E3 (PPTGDH, PPTGDHE3, WP_090325311.1), wild type, SEQ ID NO: 6 (Pseudomonas moorei) (protein)
chain: MIESVESFLARLKKRDPDQPEFHQAVEEVLRSLWPFLEANPRYLTSGILERICEPERAIVFRVSWVDDQGKVQVNRGFRIQMNSAIGPYKGGLRFHPSVNLGVLKFLAFEQTFKNSLTSLPMGGGKGGSDFDPKGKSDAEVMRFCQAFMSELYRHIGADVDVPAGDIGVGAREIGFLFGQYKRLSNQFTSVLTGKGPSYGGSLIRPEATGFGCVYFAEEMLKRRGETVEGKRVAISGSGNVAQYAARKVMDLGGKVISLSDSEGTLYCESGLTEAQWQAVLELKNVQRGRISELAGRFGLEFLAGQRPWGLSCDIALPCATQNELDAEAARALLRNGCTCVAEGANMPTTLEAVDLFIEAGILFAPGKASNAGGVAVSGLEMSQNAMRLLWTGGEVDSKLHAIMQSIHHACVHYGEENGQVNYVKGANIAGFVKVADAMLAQGVV
With B1 the Km [1] was 3120 µM, the kcat [1] was 47.51 ± 2.05 s⁻¹ and the kcat/Km [1] was 15220 M⁻¹ s⁻¹. The Km [2, 15] was 120 µM and the kcat/Km ([2]; other: pH 7.4, 35° C.) was 395910 M⁻¹ s⁻¹.

B2: Pseudomonas moorei glufosinate-ammonium dehydrogenase E3 (SEQ ID NO: 6) variant PPTGDH-F357G (Pseudomonas moorei; F357G) (protein)
chain: B1 chain with F357G
In the case of B2, the Km [3] is reported as 3350 µM, the kcat [3] is reported as 56.31 ± 1.80 s⁻¹ and the kcat/Km [3] is reported as 16808 M⁻¹ s⁻¹. For the same protein, the Km [4] was 105 µM and the kcat/Km [4] was 536000 M⁻¹ s⁻¹.

B3: Pseudomonas moorei glufosinate-ammonium dehydrogenase E3 (SEQ ID NO: 6) variant PPTGDH-F188P (Pseudomonas moorei; F188P) (protein)
chain: B1 chain with F188P
B3 showed a Km [5] of 4160 µM, a kcat [5] of 33.50 ± 1.51 s⁻¹ and a kcat/Km [5] of 8050 M⁻¹ s⁻¹. The Km [6] was 140 µM and the kcat/Km [6] was 239290 M⁻¹ s⁻¹.

B4: Pseudomonas moorei glufosinate-ammonium dehydrogenase E3 (SEQ ID NO: 6) variant PPTGDH-L107R-F188P (Pseudomonas moorei; F188P/L107R) (protein)
chain: B1 chain with L107R, F188P
B4 gave a Km [7] of 3220 µM, a kcat [7] of 67.10 ± 2.81 s⁻¹ and a kcat/Km [7] of 20840 M⁻¹ s⁻¹. It also gave a Km [8] of 112 µM and a kcat/Km [8] of 599110 M⁻¹ s⁻¹.

B5: Pseudomonas moorei glufosinate-ammonium dehydrogenase E3 (SEQ ID NO: 6) variant PPTGDH-L107R-F188P-G239K (Pseudomonas moorei; F188P/G239K/L107R) (protein)
chain: B1 chain with L107R, F188P, G239K
With B5 the Km [9] was 2090 µM, the kcat [9] was 607.5 ± 4.02 s⁻¹ and the kcat/Km [9] was 290670 M⁻¹ s⁻¹. For the same protein, the Km [10] was 45 µM and the kcat/Km [10] was 1.35e+07 M⁻¹ s⁻¹.

B6: Pseudomonas moorei glufosinate-ammonium dehydrogenase E3 (SEQ ID NO: 6) variant PPTGDH-L107R-F188P-G239K-F357G, SEQ ID NO: 9 (Pseudomonas moorei; … (protein)
chain: B1 chain with L107R, F188P, G239K, F357G
With B6 the Km [1] was 2110 µM, the kcat [1] was 712.6 ± 3.21 s⁻¹ and the kcat/Km [1] was 337730 M⁻¹ s⁻¹. For the same protein, the Km [2, 15] was 52 µM and the kcat/Km [2, 15] was 1.3703e+07 M⁻¹ s⁻¹.

B7: Pseudomonas moorei glufosinate-ammonium dehydrogenase E3 (SEQ ID NO: 6) variant PPTGDH-L107R (Pseudomonas moorei; L107R) (protein)
chain: B1 chain with L107R
In the case of B7, the Km [11] is reported as 2430 µM, the kcat [11] is reported as 42.02 ± 2.47 s⁻¹ and the kcat/Km [11] is reported as 17290 M⁻¹ s⁻¹. The Km [12] was 102 µM and the kcat/Km [12] was 411960 M⁻¹ s⁻¹.

B8: Pseudomonas moorei glufosinate-ammonium dehydrogenase E3 (SEQ ID NO: 6) variant PPTGDH-G239K (Pseudomonas moorei; G239K) (protein)
chain: B1 chain with G239K
For B8, the Km [13] was 2530 µM, the kcat [13] was 33.98 ± 1.55 s⁻¹ and the kcat/Km [13] was 13430 M⁻¹ s⁻¹. The Km [14] was 68 µM and the kcat/Km [14] was 499700 M⁻¹ s⁻¹.
